Measured values: publication PMC4709722, “Flavone synthases from Lonicera japonica and L. macranthoides reveal differential flavone accumulation” (Scientific Reports, 2016)

Legend:
Experiment in all cases: cells, lysate or membranes
[1] = substrate: O=C1C[C@@H](c2ccc(O)c(O)c2)Oc2cc(O)cc(O)c21; settings: NADPH, potassium phosphate, product luteolin
[2] = substrate: O=C1C[C@@H](c2ccc(O)cc2)Oc2cc(O)ccc21; settings: apparent Km; NADPH, potassium phosphate, optimized conditions (about pH 7.5, 37 °C); product 7,4'-dihydroxyflavone; pH 7.5; 37.0 °C
[3] = substrate: O=C1C[C@@H](c2ccc(O)cc2)Oc2cc(O)cc(O)c21; settings: apparent Km; NADPH, potassium phosphate, optimized conditions (about pH 7.5, 37 °C); product apigenin; pH 7.5; 37.0 °C
[4] = apparent Km, optimized conditions (about pH 7.5, 37 °C), pH 7.5, 37.0 °C

Protein | Km ([1]; optimized conditions) | kcat ([1]; optimized conditions) | Km [1, 4] | Vmax [1, 4] | kcat [1, 4] | kcat/Km [1, 4] | Km [2] | Vmax [2] | kcat [2] | kcat/Km [2] | Km [3] | Vmax [3] | kcat [3] | kcat/Km [3]
LjFNSII-1.1 (Lonicera japonica; S122A) (protein) MWIFDLTISFTTLLFLIFTTALLLLLKVFKKNHKLRPPPSPFTLPIIGHLHLLGPLIHQSFHRLSTLYGPLIQLKIGYIPCVVASTPELAKEFLKTHELAFSSRKHSAAIKLLTYDVSFAFAPYGPYWKFIKKTCTFELLGTRNMNHFLPIRTNEIRRFLQVMLEKAKASEGVNVTEELIKLTNNVISQMMFSTRSSGTEGEAEEMRTLVREVTQIFGEFNVSDFIKLCKNIDIGGFKKRSKDIQKRYDALLEKIISERESERARRGKNRETLGEEGGKDFLDMMLDTMEDGKCEVEITRDHIKALVLDFLTAATDTTAIAVEWTLAELISNPEVFDKAREEIDKVVGKHRLVTELDTPNLPYIHAIIKESFRLHPPIPLLIRKSVQDCTVGGYHISANTILFVNIWAIGRNPKYWESPMKFWPERFLESNGPGPVGSMDIKGHHYELLPFGSGRRGCPGMALAMQELPVVLAAMIQCFNWKPVTLDGEELDMSERPGLTAPRAHDLVCVPSARINSFDNF | 10.53 ± 1.18 µM | 6.08 ± 0.5 s⁻¹ |  |  |  |  |  |  |  |  |  |  |  | 
LjFNSII-1.1 (Lonicera japonica) (protein) MWIFDLTISFTTLLFLIFTTALLLLLKVFKKNHKLRPPPSPFTLPIIGHLHLLGPLIHQSFHRLSTLYGPLIQLKIGYIPCVVASTPELAKEFLKTHELAFSSRKHSAAIKLLTYDVSFAFSPYGPYWKFIKKTCTFELLGTRNMNHFLPIRTNEIRRFLQVMLEKAKASEGVNVTEELIKLTNNVISQMMFSTRSSGTEGEAEEMRTLVREVTQIFGEFNVSDFIKLCKNIDIGGFKKRSKDIQKRYDALLEKIISERESERARRGKNRETLGEEGGKDFLDMMLDTMEDGKCEVEITRDHIKALVLDFLTAATDTTAIAVEWTLAELISNPEVFDKAREEIDKVVGKHRLVTELDTPNLPYIHAIIKESFRLHPPIPLLIRKSVQDCTVGGYHISANTILFVNIWAIGRNPKYWESPMKFWPERFLESNGPGPVGSMDIKGHHYELLPFGSGRRGCPGMALAMQELPVVLAAMIQCFNWKPVTLDGEELDMSERPGLTAPRAHDLVCVPSARINSFDNF |  |  | 5.07 (0.05) μM | 0.267 µM/min | 2.56 s⁻¹ | 504000 M⁻¹ s⁻¹ | 6.48 (0.26) μM | 0.461 µM/min | 4.41 s⁻¹ | 681000 M⁻¹ s⁻¹ | 9.93 (0.64) μM | 0.166 µM/min | 1.59 s⁻¹ | 160000 M⁻¹ s⁻¹
LjFNSII-2.1 (Lonicera japonica) (protein) MWIFDLTISFTTLLFLIFTTALLLLLKVFKKNHKLRPPPSPFTLPIIGHLHLLGPLIHQSFHRLSTLYGPLIQLKIGYIPCVVASTPELAKEFLKTHELAFSSRKHSAAIKLLTYDVSFAFSPYGPYWKFIKKTCTFELLGTRNMNHFLPIRTNEIRRFLQVMLEKAKASEGVNVTEELIKLTNNVISQMMFSTRSSGTEGEAEEMRTLVREVTQIFGEFNVSDFIKLCKNIDIGGFKKRSEDIQKRYDALLEKIISERESERARRGKNRETLGEEGGKDFLDMMLDTMEDGKCEVEITRDHIKALVLDFLTAATDTTAIAVEWTLAELISNPEVFDKAREEIDKVVGKHRLVTELDTPNLPYIHAIIKESFRLHPPIPLLIRKSVQDCTVGGYHISANTILFVNIWAIGRNPKYWESPMKFWPERFLESNGPGPVGSMDIKGHHYELLPFGSGRRGCPGMALAMQELPVVLAAMIQCFNWKPVTLDGEELDMSERPGLTAPRAHDLVCVPSARINSFDNF |  |  | 2.05 (0.04) μM | 0.0984 µM/min | 0.94 s⁻¹ | 460000 M⁻¹ s⁻¹ | 2.56 (0.03) μM | 0.124 µM/min | 1.18 s⁻¹ | 462000 M⁻¹ s⁻¹ | 1.63 (0.06) μM | 0.0288 µM/min | 0.28 s⁻¹ | 170000 M⁻¹ s⁻¹
LmFNSII-1.1 (Lonicera macranthoides; V204M) (protein) MLIFDLTISFTTLLFLIFTTALLLKVFKKNHKLQPPPSPFTLPIIGHLHLLGPLIHQSFHRLSTLYGPLIQLKIGYIPCVVASTPELAKEFLKTHELAFSSRKHSAAIKLLTYDVSFAFAPYGPYWKFIKKTCTFELLGTRNMNHFLPIRTNEIRRFLQVMLEKAKASEGVNVTEELIKLTNNVISQMMFSTRSSGTEGEAEEMRTLVREVTQIFGEFNVSDFIKLCKNIDIGGFKKRSEDIQKRYDALLEKIISERESERARRGKNRETLGEEGGKDFLDMMLDTMEDGKCEVEITRDHIKALVLDFLTAATDTTAIAVEWTLAELISNPEVFDKAREEIDKVVGKHRLVTELDTPNLPYIHAIIKESFRLHPPIPLVIRKSVQDCTVGGYHISANTILFINIWAIGRNPKYWESPMKFWPERFLESNEPGSVGSTDIKGHHYELLPFGSGRRGCPGMALAMQELPVVLAAMIQCFNWKPVTLDGEELDMSERPGLTAPRAHDLVCVPSARINSFDNF | 8.47 ± 0.52 µM | 5.08 ± 0.30 s⁻¹ |  |  |  |  |  |  |  |  |  |  |  | 
LmFNSII-1.1 (Lonicera macranthoides) (protein) MLIFDLTISFTTLLFLIFTTALLLKVFKKNHKLQPPPSPFTLPIIGHLHLLGPLIHQSFHRLSTLYGPLIQLKIGYIPCVVASTPELAKEFLKTHELAFSSRKHSAAIKLLTYDVSFAFAPYGPYWKFIKKTCTFELLGTRNMNHFLPIRTNEIRRFLQVMLEKAKASEGVNVTEELIKLTNNVISQMMFSTRSSGTEGEAEEVRTLVREVTQIFGEFNVSDFIKLCKNIDIGGFKKRSEDIQKRYDALLEKIISERESERARRGKNRETLGEEGGKDFLDMMLDTMEDGKCEVEITRDHIKALVLDFLTAATDTTAIAVEWTLAELISNPEVFDKAREEIDKVVGKHRLVTELDTPNLPYIHAIIKESFRLHPPIPLVIRKSVQDCTVGGYHISANTILFINIWAIGRNPKYWESPMKFWPERFLESNEPGSVGSTDIKGHHYELLPFGSGRRGCPGMALAMQELPVVLAAMIQCFNWKPVTLDGEELDMSERPGLTAPRAHDLVCVPSARINSFDNF |  |  | 3.09 (0.17) μM | 0.0462 µM/min | 0.44 s⁻¹ | 142000 M⁻¹ s⁻¹ | 2.38 (0.07) μM | 0.0738 µM/min | 0.7 s⁻¹ | 295000 M⁻¹ s⁻¹ | 1.63 (0.12) μM | 0.021 µM/min | 0.2 s⁻¹ | 122000 M⁻¹ s⁻¹
